The target in the test is SARS-CoV-2 spike RBD (Wuhan-Hu-1) (Severe acute respiratory syndrome …, UniProt P0DTC2). Kind of test: SPR. For orientation: SPR reads the build-up and loss of mass on a sensor chip optically.

Experimental findings from PMC12014896 (2025) are described below.

Where a chain is given by its changes, count along the chain named.

B1: COVIC-134 (antibody, V domains shown)
VH: EVQLVESGGGVVQPGRSLRLSCAASGFTFSSYGMHWVRQAPGKGLEWVAVIWYDGSNKYYADSVKGRFTISRDNSKNTLYLQMNSLRAEDTAVYYCAKGPDILTGYYNYYYYGMDVWGQGTMVTVSS
VL: QSVLTQPPSVSGAPGQRVTISCTGSSSNIGAGYDVHWYQQLPGTAPKLLIYGNSNRPSGVPDRFSGSKSGTSASLAITGLQAEDEADYYCQSYDSSLSGFYVVFGGGTKLTVL
Regarding B1, the affinity, expressed as Kd, was 90 nM.

B2: COVIC-369 (antibody, V domains shown)
VH: EVRLVESGGGLIQPGGSLTLSCAASGVIVSRNYMNWVRQAPGKGLEWVSVIYSGGSTFYADSVKGRFTISRDNSKNTLYLQMNSLRAEDTAVYYCARWGPNYYGSGSDHYNSYGMDVWGQGTTVTVSS
VL: EIVLTQSPGTLSLSPGESATLSCRASQGVSSSSLAWYQQRPGQAPRLLMYGASSRATGIPDRFSGSGSGTDFTLTISRLEPEDFAVYYCQQSGSSPQYTFGQGTKLEIKR
With B2, the dissociation constant Kd (as a rule, the concentration at which binding is half-saturated) stood at 0.209 nM.

B3: COVIC-79 (antibody, V domains shown)
VH: EVQLVESGGGLIQPGGSLRLSCAASGFIVSRNYMIWVRQAPGKGLEWVSVIYSGGSTFYADSVKGRFTISRDNSKNTLYLQMNSLRAEDTAVYYCARDLEVAGAIDYWGQGTLVTVSS
VL: EIVLTQSPGTLSLSPGERATLSCRASQSISSSYLAWYQQKPGQAPRLLIYGATSRATGTPDRFSGSGSGTDFTLTINRLEPEDFAVYYCQQYGSSPGYTFGQGTKLEIK
The molecule B3 showed a dissociation constant (Kd) of 0.745 nM.

B4: COVIC-304 (antibody, V domains shown)
VH: QVQLQQWGAGLLKPSETLSLKCAVYGGSFSGYYWGWIRQSTGKGLEWIGEINRSGSTNYNPSLKSRVTISVDTSKNQFSLKLSSVTAADTAVYYCARGGARYYYGSGSYRSTPRPYYFDYWGQGTLVTVSS
VL: SYELTQPPSVSVAPGETARITCGGDNIGRRHVHWYQQKPGQAPVLVIYDDSDRPSGIPDRFSGSNSGNTATLTIGRVEAGDEADYYCQVWGSSNDPHVFGTGTKLTVLG
B4 had a Kd of 197 nM.

B5: COVIC-136 (antibody, V domains shown)
VH: EVQLLESGGGLIQPGGSLRLSCAASGFTVSSNYMSWVRQAPGKGLEWVSVIYSGGSTYYADSVKGRFTISRDNSKNTLYLQMNSLRAEDTAVYYCARDHVRPGMNIWGQGTMVTVSS
VL: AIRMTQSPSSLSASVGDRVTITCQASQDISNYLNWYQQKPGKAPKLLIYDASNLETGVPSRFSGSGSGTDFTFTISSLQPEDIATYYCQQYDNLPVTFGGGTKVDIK
On to B5, for which the Kd came to 9.86 nM.

B6: COVIC-59 (antibody, V domains shown)
VH: QVQLQESGGGLVQAGGSLRLSCAASGRTFSEYAMGWFRQAPGKEREFVATISWSGGSTYYTDSVKGRFTISRDNAKNTVYLQMNSLKPDDTAVYYCAAAGLGTVVSEWDYDYDYWGQGTQVTVSS
B6 gave a Kd of 201 nM.

B7: COVIC-55 (antibody, V domains shown)
VH: B6 VH
For the molecule B7, the Kd is 115 nM.

B8: COVIC-262 (antibody, V domains shown)
VH: QVQLVQSGAEVKKPGSSVKVSCKASGGTSSSYAISWVRQAPGQGLEWIGGIIPIFDTTKYAQKFQGRVTITADESTNTAYMEVSSLRSEDTAVYYCAKVADRVGASTGELDYWGQGTLVTVSS
VL: EVVLTQSPATLSLSPGERGTLSCRASQSISNYLAWYQQKPGQAPRLLIYNASNRATGVPARFSGSGSGTDFTLTISSLEPEDFAVYYCQQRSNWPPWTFGQGTKVEIKR
As for B8, binding was characterised by a dissociation constant (Kd) of 4.67 nM.

B9: COVIC-124 (antibody)
chain: QVQLQESGGGLVQAGGSLRLSCAASGRTFSEYAMGWFRQAPGKEREFVATISWSGGSTYYTDSVKGRFTISRDNAKNTVYLQMNSLKPDDTAVYYCAAAGLGTVVSEWDYDYDYWGQGTQVTVSSGGSGGSQVQLQESGGGLVQAGGSLRLSCAASGRTFSEYAMGWFRQAPGKEREFVATISWSGGSTYYTDSVKGRFTISRDNAKNTVYLQMNSLKPDDTAVYYCAAAGLGTVVSEWDYDYDYWGQGTQVTVSSGGGGSGGGGSEPKSCDKTHTCPPCPAPELLGGKKKPLDGEYFTLQIRGRERFEMFRELNEALELKDAQAGKEPGGGGGSGGGGSQVQLQESGGGLVQAGGSLRLSCAASGRTFSEYAMGWFRQAPGKEREFVATISWSGGSTYYTDSVKGRFTISRDNAKNTVYLQMNSLKPDDTAVYYCAAAGLGTVVSEWDYDYDYWGQGTQVTVSSGGSGGSQVQLQESGGGLVQAGGSLRLSCAASGRTFSEYAMGWFRQAPGKEREFVATISWSGGSTYYTDSVKGRFTISRDNAKNTVYLQMNSLKPDDTAVYYCAAAGLGTVVSEWDYDYDYWGQGTQVTVSS
Molecule B9 yielded a Kd of 167 nM.

B10: COVIC-366 (antibody, V domains shown)
VH: EVQLVESGGGLVQPGRSLRLSCAASGFSLDDYGMHWVRQAPGKGLEWVSGISWNSGDRGYADSVKGRFTISRDNAKNSLYLQMNSLRAEDTALYYCAKGSGAHYDIMTGARLDYWGQGTLVTVSS
VL: DIQMTQSPSSLSASVGDRVTITCRASQSITNYLNWYQQKPGKVPKLLIYAASILQSGVPSRFSGSGSGTDFTLTISSLQPEDFATYYCQQSYSTPWTFGQGTKVEIKR
B10 showed a Kd of 0.0703 nM.

B11: COVIC-313 (antibody)
chain 1: QVQLVQSGAEVKKPGSSVKVSCKASGGTFGISWVRQAPGQGLEWMGRIIPILGTANHAQKFQGRVTITADKSTGTVYMELSSLRSEDTAVYYCARDGDSGSYYETLGFDYWGQGTLVTVSSASTKGPSVFPLAPEVQLVESGGGLVKPGGSLRLSCAASGFTFSPYSMNWVRQAPGKGLEWVSSISVSNIYTYYADSVKGRFTISRDNAKNSLYLQMNSLRAEDTAIYYCARDLKKGGIQYDAFDIWGQGTVVTVSS
chain 2: QSALTQPPSASGSPGQSVTISCTGTSSDVGGYNYVSWYQQHPGKAPKLMIYEVNKRPSGVPDRFSGSKSGNTASLTVSGLQAEDEADYYCSSYAGSNNLVFGGGTKLTVLQPKAAPSVTLFPPEIVLTQSPATLSLSPGERATLSCRASQSVNDYLAWYQQKPGQAPRLLIYDASNRATGFPARFSGSGSGTDFTLTISSLEPEDFAVYYCQQRSNWPPTFGQGTRLEIK
Consider B11, for which the Kd was 0.155 nM.

B12: COVIC-252 (antibody, V domains shown)
VH: EVQLLESGGGLIQPGGSLRLSCAASGFIVSSNYMSWVRQAPGKGLEWVSVIYSGGSTFYADSVKGRFTISRDNSNNTLYLQMNSLRAEDTAVYYCARDYGDFYFDYWGQGTLVTVSS
VL: DIQMTQSPSTLSVSPGERATLSCRASQSVSSNLAWYQQKPGQAPRLLIYGASTRATGIPVRFSGSGSGTESTLTISSLQSEDFAVYYCQQYNKWPRTFGQGTKVEIK
For B12, the dissociation constant Kd stood at 15.1 nM. Against the preceding molecule, the Kd is about 97-fold higher.

B13: COVIC-294 (antibody, V domains shown)
VH: EVQLVESGGGLVQPGGSLRLSCAASGITVSSNYMNWVRQAPGKGLEWVSVIYSGGSTFYADSVKGRFTIARDNSKNTLYLQMNSLRAEDTAVYYCAREGLLVGPTGRGLGMDVWGQGTTVTVSS
VL: DIQMTQSPSSLSASVGDRVTITCQASQDINNYLNWYQQKPGKAPKLLIYDASNLQTGVPSRFSGSGSGTDFTFTISSLQPEDIATYYCQQYADLPYTFGQGTKLQIK
In turn, B13 gave a dissociation constant (Kd) of 0.0593 nM. This Kd lies about 250-fold lower than the previous one.

B14: COVIC-168 (antibody, V domains shown)
VH: EVQLVESGGGLIQPGGSLRLSCAASGVTVSSNYMNWVRQAPGKGLEGVSVIYSGGTTYYADSVKGRFTISRDNSKNTLYLQMNSLRAEDTAVYYCARDTVVYGMDVWGQGTTVTVSS
VL: DIQLTQSPSFLSASVGDRVTITCWASQGISSYLAWYQQKPGKAPKLLIYTASTLQSGVPSRFSGSGSGTEFTLTISSLQPEDFATYYCQQLNSYPLTFGGGTKVEIKR
Turning to B14, binding was characterised by a dissociation constant (Kd) of 24.1 nM. Compared with the last molecule, the Kd is about 410-fold higher.

B15: COVIC-151 (antibody, V domains shown)
VH: QVQLQESGPGLVKPSQTLSLTCTVSGGSISSYGYYWNWIRQHPGKGLEWIGYIYYSGSTYYNPSLKSRVTISVDTSKNQLSLRLNSVSAADTAVYYCARDFGGNSNYFDYWGQGTLVTVSS
VL: B14 VL with D1A, F10S, W24R, A25T, Y32A, T50D, T53S, Q55E, E70D, L91F
B15 displayed a Kd of 6.31 nM.

B16: COVIC-141 (antibody, V domains shown)
VH: QVQLQESGPGLVKPSQTLSLTCTVSGGSISSGGYYWSWIRQHPGKGLEWIGYIYYSGNTYYNPSLKSRVTMSVDTSKNQFSLKLTSVTAADTAVYYCASTARPLTNAEYFQHWGQGTLVTVSS
VL: DIQLTQSPGTLSLSPGERATLSCRASQSVSSSYLAWYQQKPGQAPRLLIYGTSSRATGIPDRFSGSGSGTDFTLTISRLEPEDFAVYYCQQYRTFGQGTKVEIK
As for B16, the Kd was determined as 107 nM.

B17: COVIC-393 (antibody, V domains shown)
VH: EVQLVQSGGGLVQPGGSLKLSCAASGFTFSGSAMHWVRQASGKGLEWVGHIRSKANSYATAYAASVKGRFTISRDDSKNTAYLQMNSLNTEDTAVYYCTREDIVGVPVAKDWFDPWGQGTLVTVSS
VL: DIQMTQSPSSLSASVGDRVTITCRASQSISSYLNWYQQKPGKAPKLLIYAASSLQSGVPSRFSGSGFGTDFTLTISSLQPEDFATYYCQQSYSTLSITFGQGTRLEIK
For B17, the Kd came to 0.233 nM.

B18: COVIC-293 (antibody, V domains shown)
VH: QVTLRESGPALVKPTQTLTLTCTFSGFSLSTSGMCVSWIRQPPGKALQWLARIDWDDDKYYSTSLKTRLTISKDTSKNQVVLTVTNVDPVDTGTYYCARVQVAAAGSPYDYWGQGTLVTVSS
VL: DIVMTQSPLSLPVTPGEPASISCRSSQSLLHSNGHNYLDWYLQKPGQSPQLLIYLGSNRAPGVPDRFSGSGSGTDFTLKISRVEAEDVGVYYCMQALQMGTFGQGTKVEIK
B18 returned an equilibrium dissociation constant (Kd) of 0.429 nM.

B19: COVIC-170 (antibody, V domains shown)
VH: EVQLVQSGAEVKKPGESLKISCKGSGYSFTSYWIGWVRQMPGKGLEWMGIIYPGDSDTRYSPSFQGQVTISADKSISTAYLQWSSLKASDTAMYYCVRSYNWNYFDYWGQGTLVTVSS
VL: AIQLTQSPSSLSASVGDRVTITCRASQGISSGLAWYQQKAGKAPKLLIYDVSSLESGVPSRFSGSGSGTDFTLTISSLQPEDFATYYCQQFLSYPWTFGQGTKVEIKR
Molecule B19 came in with an equilibrium dissociation constant (Kd) of 1.16 nM.

B20: COVIC-139 (antibody, V domains shown)
VH: EVQLVESGGGVVQPGRSLRLSCAASGFTFSSYGMHWVRQAPGKGLEWVAVISYDGSNKYYADSVKGRFTISRDNSKNTLYLQMNSLRAEDTAVYYCANGFGEYYYYAMDVWGQGTTVTVSS
VL: NFMLTQPHSVSESPGKTVTISCTGSSGSIASNYVQWYQRRPGSAPTTVIYEDNQRPSGVPDRFSASIDSSSNSASLTISGLKTEDEADYYCQSYDSSNWVFGGGTKLTVL
The molecule B20 had a dissociation constant (Kd) of 44.6 nM.

B21: COVIC-183 (antibody, V domains shown)
VH: EVHLVESGGGLVQPGGSLRLSCAASGFTFSDHYMDWVRQAPGKGLEWVGRTRNKANSYTTEYAASVKGRFTISRDDAKNSLYLQMNSLKTEDTAVYYCARVHRWAYCINGVCFGAYSDYWGQGTLVTVSS
VL: not shown
Consider B21, for which binding was put at a Kd of 6.97 nM. This Kd lies about 6.4-fold lower than the previous one.
